Values of other authors, collected in PMC8699243.
Where two headings read alike, the source gives them in different places. Each block holds one substance with its values, some of them ahead of it.

Columns and labels:
t-PA (Homo sapiens) [1] = target: t-PA (Homo sapiens) (UniProt P00750)
[2] = target: plasminogen (Homo sapiens) (UniProt P00747)
t-PA (Homo sapiens) [3] = target: t-PA (Homo sapiens) (UniProt P00750); remark: listed apart in the source
[4] = target: plasminogen (Homo sapiens) (UniProt P00747); remark: listed apart in the source
S100A4 (Homo sapiens) = S100A4 (Homo sapiens) (UniProt P26447)
S100A10 (Homo sapiens) = S100A10 (Homo sapiens) (UniProt P60903)

UniProt P00747, sequence (P00747 20-810): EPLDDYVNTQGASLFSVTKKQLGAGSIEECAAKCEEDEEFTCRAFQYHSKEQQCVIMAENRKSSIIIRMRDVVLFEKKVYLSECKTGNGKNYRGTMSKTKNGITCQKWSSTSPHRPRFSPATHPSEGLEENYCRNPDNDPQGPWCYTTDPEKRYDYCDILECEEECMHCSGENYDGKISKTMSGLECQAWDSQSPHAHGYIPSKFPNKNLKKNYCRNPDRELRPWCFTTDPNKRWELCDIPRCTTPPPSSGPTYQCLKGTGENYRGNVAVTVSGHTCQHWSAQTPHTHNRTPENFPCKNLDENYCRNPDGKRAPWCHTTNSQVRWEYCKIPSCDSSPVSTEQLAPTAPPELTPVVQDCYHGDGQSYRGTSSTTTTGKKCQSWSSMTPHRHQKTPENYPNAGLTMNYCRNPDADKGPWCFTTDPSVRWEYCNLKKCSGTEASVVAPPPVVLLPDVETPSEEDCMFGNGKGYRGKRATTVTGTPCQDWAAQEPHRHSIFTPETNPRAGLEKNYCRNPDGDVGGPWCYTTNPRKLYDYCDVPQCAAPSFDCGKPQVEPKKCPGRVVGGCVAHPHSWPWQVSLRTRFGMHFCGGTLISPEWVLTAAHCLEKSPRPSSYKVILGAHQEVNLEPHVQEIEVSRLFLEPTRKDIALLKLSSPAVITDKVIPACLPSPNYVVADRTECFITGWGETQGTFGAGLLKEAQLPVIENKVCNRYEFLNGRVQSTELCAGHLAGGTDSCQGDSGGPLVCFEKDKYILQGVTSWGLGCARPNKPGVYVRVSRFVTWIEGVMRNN
UniProt P00750, sequence (P00750 36-562): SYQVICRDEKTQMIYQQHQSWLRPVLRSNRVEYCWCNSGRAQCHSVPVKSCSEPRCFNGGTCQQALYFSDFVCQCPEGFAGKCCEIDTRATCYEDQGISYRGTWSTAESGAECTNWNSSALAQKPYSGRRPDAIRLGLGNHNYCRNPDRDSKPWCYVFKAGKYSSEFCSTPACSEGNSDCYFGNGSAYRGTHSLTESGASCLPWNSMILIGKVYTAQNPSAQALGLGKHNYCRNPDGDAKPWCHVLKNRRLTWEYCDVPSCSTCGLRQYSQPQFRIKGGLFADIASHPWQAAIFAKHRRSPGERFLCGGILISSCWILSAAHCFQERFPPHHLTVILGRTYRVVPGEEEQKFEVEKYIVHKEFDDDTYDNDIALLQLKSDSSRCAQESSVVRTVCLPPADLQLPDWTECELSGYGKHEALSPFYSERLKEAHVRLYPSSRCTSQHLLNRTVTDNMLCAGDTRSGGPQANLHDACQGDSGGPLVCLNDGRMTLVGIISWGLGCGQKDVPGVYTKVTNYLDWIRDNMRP
UniProt P26447, sequence (P26447 2-101): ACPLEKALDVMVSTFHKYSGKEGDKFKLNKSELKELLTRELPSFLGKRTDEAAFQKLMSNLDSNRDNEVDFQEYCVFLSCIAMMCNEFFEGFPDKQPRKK

- Kd (t-PA (Homo sapiens) [1]): 450 nM
- Kd [2]: 1810 nM
Substance: S100A10 (from UniProt P60903)

- Kd (t-PA (Homo sapiens) [3]): 680 nM
- Kd [4]: 110 nM
Substance: AIIt (Annexin A2/S100A10 heterotetramer) (from UniProt P07355)

- Kd (S100A4 (Homo sapiens)): 5000 nM
- Kd (S100A10 (Homo sapiens)): 13 nM
Substance: Annexin A2 (from UniProt P07355)
